According to PMC3380378:

What was measured:
Experiment in all cases: purified protein
[1] = test system: O=C(O)C(=O)C[C@@H](O)[C@@H](O)[C@H](O)[C@H](O)COP(=O)(O)O; settings: Mg2+; pH 10.0
[2] = substrate: Nc1ccn([C@@H]2O[C@H](COP(=O)(O)OP(=O)(O)OP(=O)(O)O)[C@@H](O)[C@H]2O)c(=O)n1; assay type: biochemical, Escherichia coli; settings: Mg2+; pH 9.3
[3] = substrate: O=C(O)C(=O)C[C@@H](O)[C@@H](O)[C@H](O)[C@H](O)CO; assay type: biochemical, Escherichia coli; settings: Mg2+; pH 9.3

Row | Molecule | Km [1] | Km [2] | Km [3]
1 | 3-deoxy-D-manno-octulosonic acid 8-phosphate phosphatase (KdsC) (Escherichia coli K-12) | 370 ± 10 µM | – | –
2 | 3-deoxy-D-manno-octulosonate cytidylyltransferase (KdsB, CMP-KDO synthetase) (Escherichia coli K-12) (protein) MSFVVIIPARYASTRLPGKPLVDINGKPMIVHVLERARESGAERIIVATDHEDVARAVEAAGGEVCMTRADHQSGTERLAEVVEKCAFSDDTVIVNVQGDEPMIPATIIRQVADNLAQRQVGMATLAVPIHNAEEAFNPNAVKVVLDAEGYALYFSRATIPWDRDRFAEGLETVGDNFLRHLGIYGYRAGFIRRYVNWQPSPLEHIEMLEQLRVLWYGEKIHVAVAQEVPGTGVDTPEDLERVRAEMR | – | 330 ± 40 µM | 280 ± 20 µM
